Assays:
[1] = biological target: T1, human FcγRI receptor protein (R&D Systems) (human, UniProt P12314 16-288); experiment: SPR
T1 construct: also called soluble FcγRI; solFcγRI

mFcγRIIb = biological target: T2, mFcγRIIb (Mus musculus, UniProt P08101); experiment: SPR
T2 construct: extracellular region, C-terminal His- and GST-tag; also called mouse FcγRII
T2 sequence (receptor extracellular region, looked up): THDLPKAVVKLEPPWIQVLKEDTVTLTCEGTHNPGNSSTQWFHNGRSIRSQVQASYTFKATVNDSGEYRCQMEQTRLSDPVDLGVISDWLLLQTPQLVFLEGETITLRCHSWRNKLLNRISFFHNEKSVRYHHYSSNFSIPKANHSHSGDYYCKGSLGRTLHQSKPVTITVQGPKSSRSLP

mFcγRIV = biological target: T3, mFcγRIV; experiment: SPR
T3 construct: also called mouse FcγRIV; not shown: C-terminal His and GST tags (named only on our card)
T3 chain: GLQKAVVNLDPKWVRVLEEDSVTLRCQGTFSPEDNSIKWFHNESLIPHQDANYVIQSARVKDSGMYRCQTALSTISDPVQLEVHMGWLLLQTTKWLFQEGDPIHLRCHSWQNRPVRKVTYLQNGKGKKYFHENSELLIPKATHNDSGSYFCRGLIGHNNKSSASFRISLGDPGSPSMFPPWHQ

cynoFcγRIIb = biological target: T4, cynoFcγRIIb (Macaca fascicularis, UniProt A0A140HDP4); experiment: SPR
T4 construct: extracellular region, C-terminal His- and GST-tag; also called cynomolgus monkey FcγRIIb
T4 sequence (receptor extracellular region): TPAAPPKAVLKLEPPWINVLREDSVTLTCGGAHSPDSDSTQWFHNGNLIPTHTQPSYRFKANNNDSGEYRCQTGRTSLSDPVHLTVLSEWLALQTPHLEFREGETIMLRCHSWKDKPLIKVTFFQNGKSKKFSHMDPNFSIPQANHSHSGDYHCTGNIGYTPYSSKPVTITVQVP

cynoFcγRIIIa = biological target: T5, cynoFcγRIIIa (Macaca fascicularis, UniProt Q8SPW2); experiment: SPR
T5 construct: extracellular region, C-terminal His- and GST-tag; also called cynomolgus monkey FcγRIIIa
T5 sequence (Q8SPW2 17-208): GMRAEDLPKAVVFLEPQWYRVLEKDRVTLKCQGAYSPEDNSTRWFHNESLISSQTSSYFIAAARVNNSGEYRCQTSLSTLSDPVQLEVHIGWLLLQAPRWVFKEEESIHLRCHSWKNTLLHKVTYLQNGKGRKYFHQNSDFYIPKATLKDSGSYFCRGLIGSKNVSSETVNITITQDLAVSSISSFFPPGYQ

[2] = biological target: T6, human FcγRIIb receptor protein (R&D Systems) (human, UniProt P31994 46-217); experiment: Biacore SPR, Kd(native IgG1)/Kd(variant)
T6 construct: Bought protein injected over captured antibody in Biacore; also called CD32b
T6 sequence (looked up): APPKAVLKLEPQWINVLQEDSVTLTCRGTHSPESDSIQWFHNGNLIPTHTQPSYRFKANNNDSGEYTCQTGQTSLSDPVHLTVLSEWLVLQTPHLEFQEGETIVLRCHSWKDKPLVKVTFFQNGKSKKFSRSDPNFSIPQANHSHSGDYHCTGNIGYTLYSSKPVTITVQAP

[3] = biological target: T6, human FcγRIIb receptor protein (R&D …); experiment: Biacore SPR, antibody captured on protein A/G chip, FcγR injected
[4] = biological target: T7, human FcγRIIb on cells (transfected HEK293T cells; primary human B cells) (human, UniProt P31994 43-310); experiment: flow cytometry on FcγRIIb-transfected 293T cells [top left panel]
T7 construct: whole, on cells; also called CD32b
T7 sequence (looked up): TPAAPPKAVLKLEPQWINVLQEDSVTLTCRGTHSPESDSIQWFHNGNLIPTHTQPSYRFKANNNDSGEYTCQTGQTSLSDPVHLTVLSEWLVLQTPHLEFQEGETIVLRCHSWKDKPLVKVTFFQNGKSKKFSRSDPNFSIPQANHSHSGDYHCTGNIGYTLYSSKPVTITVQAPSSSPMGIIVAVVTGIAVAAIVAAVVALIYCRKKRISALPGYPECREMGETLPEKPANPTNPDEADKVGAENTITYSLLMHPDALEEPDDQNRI
Experimental: (§1) In order to validate the Biacore data and evaluate receptor binding of the variants on the cell surface, binding of select antibodies to cells expressing FcγRIIb was measured. […] HEK293T cells in DMEM with 10% FBS were transfected with human FcγRIIb cDNA in pCMV6 expression vector (Origene Technologies, Rockville, Md.), cultured for 3 days, harvested, washed twice in PBS, resuspended in PBS with 0.1% BSA (PBS/BSA), and aliquoted at 2×10^5 cells per well into 96-well microtiter plates. Fc variant antibodies were serially diluted in PBS/BSA then added to the cells and incubated with mixing for 1 h at room temperature. After extensive washing with PBS/BSA, phycoerythrin (PE)-labeled anti-human-Fab-specific goat F(ab′)2 fragment was added for detection. Cells were incubated for 30 min at room temperature, washed, and resuspended in PBS/BSA. Binding was evaluated using a FACSCanto II flow cytometer (BD Biosciences, San Jose, Calif.), and the mean fluorescence intensity (MFI) was plotted as a function of antibody concentration using Graph Pad Prism software (GraphPad Software, San Diego, Calif.) from which half-maximal binding (EC50) values were determined by sigmoidal dose response modeling.

[5] = biological target: T7, human FcγRIIb on cells (transfected …); experiment: flow cytometry on FcγRIIb-transfected 293T cells [bottom right panel]
Experimental: as §1

[6] = biological target: T7, human FcγRIIb on cells (transfected …); experiment: flow cytometry on FcγRIIb-transfected 293T cells [middle right panel]
Experimental: as §1
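Throughout, for Fold vs WT IgG1 (off-rate): fold improvement over WT IgG1 so higher means slower dissociation than WT.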

T1 sequence (P12314 16-288 limits assumed): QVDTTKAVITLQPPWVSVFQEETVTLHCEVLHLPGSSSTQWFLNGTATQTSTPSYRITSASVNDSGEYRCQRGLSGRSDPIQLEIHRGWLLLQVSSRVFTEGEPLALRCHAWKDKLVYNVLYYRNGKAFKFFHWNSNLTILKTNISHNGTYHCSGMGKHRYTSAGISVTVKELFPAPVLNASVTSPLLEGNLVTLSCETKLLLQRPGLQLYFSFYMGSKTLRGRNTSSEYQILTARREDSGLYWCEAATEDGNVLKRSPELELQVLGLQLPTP

Fold vs WT IgG1 [1]: 2.81 fold | Kd [1]: 0.117 nM | Fold vs WT IgG1 (off-rate) (mFcγRIIb): 1.44 fold | Fold vs WT IgG1 (off-rate) (mFcγRIV): 0.77 fold | Fold vs WT IgG1 (off-rate) (cynoFcγRIIb): 1.09 fold | Fold vs WT IgG1 (off-rate) (cynoFcγRIIIa): 0.515 fold | fold affinity relative to native IgG1 [2]: 20.4 fold | Kd [3]: 71.9 nM | EC50 (read off the curve) [4]: ~10 ng/mL | EC50 (read off the curve) [5]: ~20 ng/mL | EC50 (read off the curve) [6]: ~30 ng/mL
B1: anti-CD19 antibody HuAM4G7 IgG1 S267E (antibody)
heavy: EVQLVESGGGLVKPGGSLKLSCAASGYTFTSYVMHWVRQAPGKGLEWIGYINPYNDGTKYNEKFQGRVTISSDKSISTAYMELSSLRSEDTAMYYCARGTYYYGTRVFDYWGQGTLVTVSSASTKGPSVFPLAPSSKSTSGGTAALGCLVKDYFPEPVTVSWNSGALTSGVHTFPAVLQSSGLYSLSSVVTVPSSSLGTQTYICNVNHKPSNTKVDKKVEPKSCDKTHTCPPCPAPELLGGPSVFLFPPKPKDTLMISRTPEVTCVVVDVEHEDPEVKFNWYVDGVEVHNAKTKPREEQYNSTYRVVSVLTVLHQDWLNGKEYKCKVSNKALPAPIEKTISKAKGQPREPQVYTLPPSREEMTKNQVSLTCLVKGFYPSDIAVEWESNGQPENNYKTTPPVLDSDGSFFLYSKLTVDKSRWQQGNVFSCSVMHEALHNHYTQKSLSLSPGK
light: DIVMTQSPATLSLSPGERATLSCRSSKSLQNVNGNTYLYWFQQKPGQSPQLLIYRMSNLNSGVPDRFSGSGSGTEFTLTISSLEPEDFAVYYCMQHLEYPITFGAGTKLEIKRTVAAPSVFIFPPSDEQLKSGTASVVCLLNNFYPREAKVQWKVDNALQSGNSQESVTEQDSKDSTYSLSSTLTLSKADYEKHKVYACEVTHQGLSSPVTKSFNRGEC
notes: Positions in EU numbering; copies: 2 + 2

— patent publication US20130315910A1 (Xencor, published 2013)
